The Human Domainome abundance scans (Beltran et al. 2025)

B1: Transcription intermediary factor 1-beta, residues 620 to 671; numbered along this chain, Q13263 (parent)
chain: TLDDSATICRVCQKPGDLVMCNQCEFCFHLDCHLPALQDVPGEEWSCSLCHV

Variants of: B1
Experiment: abundance fitness (aPCA) (normalised: wild type 0, dead -1); higher = more abundant; growth selection in yeast, the domain comes from the species named
Conditions: Homo sapiens

Abundance fitness, by site and new letter:
P15: S -0.022; N -0.396; L -0.684; Y -0.255; W -0.771; Q -0.559
W45: V -0.236; E -0.158; R -0.131; L -0.195; G -0.137; H -0.103; M -0.296
H29: P -1.34; W -0.908; Q -0.957; R -0.749; I -1.12; N -0.504; M -0.967
F26: G 0.121; E 0.04; R -0.045
C9: R -1.18; I -0.955; Q -1.12; M -0.706; V -0.902; W -0.905; A -0.861
L30: A -0.116; C -0.135; T -0.292; K -0.312; G -0.375; S -0.145
D3: H -0.205; R -0.294; A -0.723; N -0.112
L18: H -0.664; W -0.834; R -0.889; P -0.729; K -0.636
G42: R -0.074; V -0.107; S -0.265; C -0.222; L -0.086; W -0.302; T 0.174; E -0.139; M -0.091
T1: D 0.178; A 0.314; G -0.602; R -0.495
C50: M -0.65; E -0.232; G -0.278; N -0.505; F -0.315
V40: A -0.323; K -0.221; E -0.403; H -0.361; L -0.221; Q -0.383; Y -0.121; I -0.401
C47: D -0.456; T -0.565; Q -0.636; R -0.552; G -0.33; P -0.484; L -0.864
P35: Q -0.698; N -0.222; K -0.18; R -0.488; L -0.508; A -0.553; E -0.447
M20: R 0.003; N -0.337; Y -0.296; H -0.755; L -0.391; A -0.312; D -0.574; G -0.29
S48: A -0.112; Y -0.094; N -0.114; F -0.45; L -0.409; T -0.217; C -0.324; H 0.052
F28: G -0.593; R -0.284; V -0.227; I -0.016; L -0.393; C -0.211; M -0.318; S -0.424
L2: G -0.604; I -0.112; F -0.168; N 0.017; Y 0.045
D17: S -0.004; A -0.639; T -0.074; C -0.151; F -0.099; G 0.076; R -0.062
C32: Y -0.45; G -0.652; P -0.454; A -0.545; K -0.795; H -0.501; Q -0.904; M -0.952; T -0.937; F -0.959
G16: H -0.214; Q -0.477; I -0.534; P -0.945; A -0.639; C -1.11; T -0.754; Y -0.879; V -0.827; W -0.791; D 0.076
N22: R -0.11; F -0.281; S -0.066; E 0.094; I -0.316
H51: D 0.041; V -0.023; P 0.248; Q 0.148; N -0.528; K -0.415; L -0.063; C -0.281; Y -0.553
D39: K -0.272; F -0.214; S -0.227
E25: F -0.113; K -0.228; Y -0.061; M -0.286; Q -0.077; T -0.024; W -0.322; S 0.059
